System: BMS human breast cancer cells
Experiment: Tumor cell adhesion under stationary conditions
Type: cell-based
Conditions: 3 μM scFv
Experimental: FIGS. 3A, 3B, 3C, 3D, 3E. scFv Bc-12 and Bc-15 inhibit αvβ3 mediated adhesive breast cancer cell functions. (A) Adhesion of BMS human breast cancer cells to fibrinogen (Fg), vitronectin (VN) or type I collagen (Col I) in the absence or presence of 3 μM Bc-12, Bc-15 or their RGE mutants Mut-12, Mut-15, compared to 200 μM GRGDSPK peptide (SEQ ID NO: 11). Protein coating concentrations: 10 μg/ml (VN, Col I) or 20 μg/ml (Fg). Adhesion time: 30 min at 37° C. (B) Effect of scFvs on haptotactic BMS cell migration toward a fibrinogen substrate (16 hrs at 37° C. in transwell chambers with or without 2 μM Bc-12, Bc-15 or their RGE mutants Mut-12 or Mut-15, compared to 200 μM GRGDSPK peptide) (SEQ ID NO: 11). (C) Effect of scFvs on breast cancer cell arrest during blood flow. Metastatic BMS cells, labeled with hydroethidine, were suspended in human blood (anticoagulated with 50 nM PPACK) and perfused over a collagen I matrix at a venous wall shear rate of 50 s^−1. Under these conditions, breast cancer cells arrest by αvβ3 mediated binding to adherent, thrombus forming platelets. Tumor cell adhesion was quantified by image acquisition at 30 predefined positions during blood flow. Left: representative images of platelet signal (thrombi, green fluorescence) and tumor cell signal (red fluorescence) at identical x,y positions. Right: Number of arrested tumor cells in the presence of 3 μM non-function blocking anti αv scFv Bc-20 or function blocking anti αvβ3 scFvs Bc-12 or Bc-15. (D) scFv Bc-15 is internalized by human breast cancer cells and reduces cell proliferation. Left: confocal images of BMS cells incubated for 4 hrs with FITC-Bc-15 at 4° C. (binding) versus 37° C. (allowing internalization). Right: Phase contrast images of BMS cell cultures 4 days after seeding in the presence of 2 μM RGE containing scFv Mut-15, or RGD containing Bc-15. (E) Effect of scFv Bc-12 on the viability of matrix deprived BMS breast cancer cells in ultra-low-adhesion plates in the presence or absence of 3.7 μM scFv, or 14.36 μM camptothecin as apoptosis inducing control. Measurement of apoptosis was based on cytoplasmic histone-associated DNA fragments after 20 hrs.
Cell adhesion and migration. Tumor cell adhesion under stationary conditions was analyzed as detailed earlier (19). Adhesion buffer was Hanks balanced salt solution (HBSS) pH 7.4, 0.5% BSA, 1 mM MgCl2, 0.2 mM MnCl2. For inhibition, cells were incubated for 5 min at RT either with 3 μM scFv or 200 μM GRGDSPK (SEQ ID NO: 11) peptide, then plated in the presence of inhibitor and allowed to attach for 30 min at 37° C. Haptotactic tumor cell migration toward fibrinogen was analyzed in transwell chambers as detailed earlier. Rolli, M., et al., Proc. Natl. Acad. Sci. U.S.A 100: 9482-9487, 2003. […]

B1: Bc-12: patient derived human scFv antibody against activated αvβ3 with RGD motif in CDR-H3; cDNA ATCC PTA-6303 (protein)
scFv: MAQVQLVQSGAEVKKPGASVKVSCKASGYTFSNYGITWVRQAPGQGLEWMGWINNGNTHYAQKFQGRVTMTTDTSTSTAYMELRSLRSDDTAVYYCARDPRGDDEPYWGQGTLVTVSSGGGGSGGGGSGGGGSEIVLTQSPLSLPVTLGQPASISCRSSQNLVYSDGNTYLSWFQQRPGQSPRRLIYKVSNRDSGVPDRFSGSGSGTDFTLKISRVEAEDIGVYYCMQGTHWPPRTFGQGTKVEIKRGLGGLVDYKDDDDK
  adhesion to collagen type I: no effect
  attachment to vitronectin: inhibited by Bc-12 and Bc-15, but to a lesser degree
30 min at 37° C.
  adhesion to immobilized fibrinogen: efficiently inhibited

Source: US7271245B2, “Methods and compositions for inhibition of metastasis” (The Scripps Research Institute, priority 2004, dated 2007)
